From the nanobody polyreactivity screen of Harvey et al. (2022)

Assay: yeast display, Sf9 membrane polyspecificity reagent, FACS + sequencing; frameworks hold sequencing errors
Summary of the method: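 A synthetic nanobody library was expressed on Saccharomyces cerevisiae BJ5465 by galactose induction for 36–48 hours. The library was stained for 1 hour at 4 °C with 10% biotinylated, detergent-solubilized Sf9 membrane reagent and enriched with streptavidin microbeads before FACS. Low and high (top ~1%) gates were set on anti-HA fluorescence for expression and streptavidin fluorescence for reagent binding, and each polyreactivity label reflects the gate of origin.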

## QVQLVESGGGLVQAGGSLRLSCAASGRTFSYYAMGWYRQAPGKERELVAVISVSGGSTYYADSVKGRFTISRDNAKNTVYLQMNSLKPEDTAVYYCNVDLYYGYDYWGQGTQVTVSS
  polyreactivity (PSR sort gate): low polyreactivity

## QVQLVESGGGLVQAGGSLRLSCSASGRIFRYNGKGWYRQAHGKERELVAVITHRSGTTSYADSVKGRFTISRDNAKNTVYLQMNSLKPEDTAVYYCARGYYKPSVGKSKRVGGNYLGQGTQVTVSS
  polyreactivity (PSR sort gate): high polyreactivity

## QVQLVESGGGLVQAGGSLRLSCAASGITFAPYAMGWYRQAPGKEREFVAGISWSGTTTYYADSVKGRFTISRDNAKNTVYLQMNSLKPEDTAVYYCATDYFNYGYFDFRWYYYWGQGTQVTVSS
  polyreactivity (PSR sort gate): high polyreactivity

## QVQLVESGGGLVQAGGSLRLSCDASGRILTSNAMGWYRQPPGKERELVAAISWSGGSTYYADSVKGRFTISRDNAKNTVYLQMNSLKPEDTAVYYCAAPFTTTFDYWGQGTQVTVSS
  polyreactivity (PSR sort gate): low polyreactivity

## QVQLVESGGGLVQAGGSLRLSCAASGSTFWYYVMGWYRQAPGKERELVAAISTRGDSTYYADSVKGRFTISRDNAKNTVYLQMNSLKPEETAVYYCAKYRQSSGRVRFDYWGQGTQVTVSS
  polyreactivity (PSR sort gate): low polyreactivity

## QVQLVESGGGLVQAGGSLRLSCAASGSTFGQYGMGWYRQAPGKERELVAAIRIGGSTNYADSVKGRFTISRDNAKNTVYLQMNSLKPEDTAVYYCNAGGTPTWTHGGYIELDYWGQGTQVTVSS
  polyreactivity (PSR sort gate): low polyreactivity

## QVQLVESGGGLVQAGGSLRLSCAASGRTFPYYDIGWYRKAPGKERELVAAITSGGTTNYADSVKGRFTISRDNAKNTVYLQMNSLKPEDTAVYNCAAGSPWYYFSSYGYWGQGTQVTVSS
  polyreactivity (PSR sort gate): low polyreactivity

## QVQLVESGGGLVQAGGSLRLSCAASGRTWFYAMGWYRQAPGKERELVAVISRSGASTNYADSVKGRFTISRDNAKNTVYLQMNSLKPEDTAVYYCAAGWRYRGGYWYPRLEYGYWGQGTQVTVSS
  polyreactivity (PSR sort gate): high polyreactivity

## QVQLVESGGVLVQEGGSLRLSCDASGSIFECYAMGWYRQAPGKARELVAYITYNGGSTYYADSVKGRFTISRHNAKKTVYLQMNSLKPEDSAVYYCAAVYFVQVPDYYYASEYGYWGQGTQVTVSS
  polyreactivity (PSR sort gate): low polyreactivity

## QVQRVESGGGLVQAGGSRRLSCAASGSIFSAYAMGWYRQAPGKEREFVAAITRRGGNTYYADSVKGRFTISRDNAKNTVYLQMNSLKPDDTAVYYCAADAGGGPFDYSGQGTQVTVSS
  polyreactivity (PSR sort gate): low polyreactivity

## QVQLVESGGGLVQAGGSLRLSCAASGRTSYVYAMGWYRQAPGKERELVAAITSSGGSTYYADSVKGRFTISRDNAKNTVYLQMNSLKPEDTAVYYCAASRVRYSYGYPYYYWGQGTQVTVSS
  polyreactivity (PSR sort gate): high polyreactivity

## QVQLVESGGGLVQAGGSLRLSCAASGFIFRYNAMGWYRQAPGKEREFVAAISWGGGRTYYADSVKGRFTISRDNAKNTVYLQMNSLKPEDTAVYYCAAVSPHNRYGYKYDYWGQGTQVTVSS
  polyreactivity (PSR sort gate): high polyreactivity

## QVQLVESGGGLVQAGGSLRLSCAASGFTLQSNAMGWFRQATGKERELVAAISFRGGSTYYADSVKGRFTISRDNAKNTVYLQMNSLKPEDTAVYYCAADFYFHSAYNYGYWGQGTQVTVSS
  polyreactivity (PSR sort gate): low polyreactivity

## QVQLVESGGGLVQAGGSLRLSCAASGSIISSNAMGWYRQAPGKEREMVAAITWSGGSTYYADSVKGRFTNSRDNAKNTVYLQMNSLKPEDTAVYYCAADQWRYDGSFTGYGYWGQGTQVTVSS
  polyreactivity (PSR sort gate): low polyreactivity

## QVQLVESGGGLVQAGGSLRLSCAASGFTLYSNTMGWYRQATGKERELVAAINYSGGSTYYADSVKGRFTISRDNAKNTVYLQMNSLKPEDTPVYYCATDLHWLVTKYGYWGQGTQVTVSS
  polyreactivity (PSR sort gate): low polyreactivity

## QVQLVESGGGLVQAGGSLRLSCAASGRIFVGYAMGWYRQAPGKERELVAAISSRGGSTYYADSVKGRFTISRDNAKNTVYLQMNSLKPEDTAVYYCAKVRTYRYYDGGDYWGQGTQVTVSS
  polyreactivity (PSR sort gate): high polyreactivity

## QVQLVESGGGLVQAGGSLRLSCAASGSTLVYYDMGWYRQAPGKERELVATITGTDSAYYAVSVKGRFTISRDNAMNTVYLQMNRLKPEDTADCAADRAASRADYEYWGQGTQVTVSS
  polyreactivity (PSR sort gate): low polyreactivity

## QVQLVESGGGLVQAGGSLRLSCAASGRTFIVNTMGRYRQAPGKERELVAAITARGGRTYYADSVKGRFTISRDNAKNTVYLQMNSLKPEDTAVYYCNARTPPREAERYYWGLGTQVTVSS
  polyreactivity (PSR sort gate): low polyreactivity

## QVHLVESGGGLVQAGGSLRLSCAASGITFGRNTMGWSRQAPGKERELVDAIDSCGNTYADSVKGRFTISRDNAKNTVYLKMNIVNPEDTAVYYCAVDGGEFSSYGEWGQGTQVTVAS
  polyreactivity (PSR sort gate): low polyreactivity

## QVQLVESGGGLVQAGGSLRLSCAASGFTFSDNAMGWYRQAPGKEREFVATIDWSGGSTYYADSVKGRFTISRDNAKNTVYLQMNSLKPDDTAVYYCAATFRYSTSQYLQGYDYWGQGTQVTVSS
  polyreactivity (PSR sort gate): low polyreactivity

## QVQLVESVGGLVQAGGSLRISSAASGRIFTGNGMGWYRQAPGKERELVASITYNGGRTYYADSVKGRFTISRDNAKNTVYLQINSLKPEDTSVYYCNAGDYGFRYEYWGQGTQVTVSS
  polyreactivity (PSR sort gate): low polyreactivity

## QVQLVESGGGLVQAGGSLRLSCAASGSTFYGNAMGWYRQAPGKERELVAAITWGDASTYYADSVKGRFTISRDNAKNTDYLQMNSLKPEDTAVYYCAVDESYGSSSDMDYWGQGTQVTVSS
  polyreactivity (PSR sort gate): low polyreactivity

## QVQLVETGGGLVQAGGSLRLSCAASGSIFDGYAMGWYRQAPGKERDFVASIRFSTARTYYADSVKGRFTISRDNAKNTVYLQMNSLKPEDTAVYYCNAPQGFVWRYSSWGPYDYWGQGTQVTVSS
  polyreactivity (PSR sort gate): high polyreactivity

## QVQLVESGGGLVQAGGSLRLSCAASGRTLYRNDMGWYIQAPGKERELVARITWSGASTYYADSVKGRFTISRDNAKNSVYLQMKSLKTEDTAVYFCAALYLSRRYGPDDSYNFWGQGTQVTVSS
  polyreactivity (PSR sort gate): high polyreactivity

## QVQLVESGGVLVQAGGSLRLSCAASGRTFDSYAMGWYRQAPGKERELVAAISSRGTRTYYADSVKWRFTISRDNAKNTVYLQMNSLKPEDTAVYYCNAGGAYEYDYWGQGTQVTVSS
  polyreactivity (PSR sort gate): high polyreactivity

## QVQLVESGGGLVQAGGSLRLSCAASGSIFTYYAMGWYRQAPGKERELVADISKRGGSTYYADSVKGRFTISRDNAKNTVYLQMNSLKPEYTAVYYCATRARYTWRAFEYWGQGTQVTVSS
  polyreactivity (PSR sort gate): low polyreactivity

## QVQLVESGGGLVQAGGSLRLSCAASGRIFIVYVMGWYRQAPGKERELVAGITLSGGNTYYADSVKGRFTISRDNAKNTVYLQMNSLKPEDTAVYYCAAGWYGIEMDYWGQGTQVTVSS
  polyreactivity (PSR sort gate): high polyreactivity

## QVQLVESGGGLVQAGGSLRLSCAASGYIFPTNAMGWYRQAPGKERELVAVITSGGSTYYADSVKGRFTISRDNAKNTVYLQMNSLKPEDNAVYYCAARYPGRYGIYRVLYGYWGQGTQVTVSS
  polyreactivity (PSR sort gate): high polyreactivity

## QVQLVDSGGGLVQAGGSLRLSCAASGYIFPWYVKGWYRQAPVKERELVAAISWSGGSTYYADSVKGRFTISRDNAKNTVYLQMKSLKPEDTAVYYCNAVRTYRDVSYNSWGQGTQVNVSS
  polyreactivity (PSR sort gate): high polyreactivity

## QVQHVESGGGLVQAGGSLRLSCASSGSTFWFYAMGWYRQAPGKERELVATINWYGGTTNYADSVKGRFTISRDNAKNSVYLQMYSLKPEDTADYYGAGYQALTYGSYEYWGQGSQVTVSS
  polyreactivity (PSR sort gate): low polyreactivity

## QVHLVESGGGLVQAGGSLRLSCAASGNTFYKYTMGWYRQAPGKERELVAVISSSSGSTYYADSVKGRFTISRDNAMNTVYLQMNSLKPEDTAVDYCNKRGWWDLRHDYWGQGTQVTVSS
  polyreactivity (PSR sort gate): low polyreactivity
